Results on four molecules are retold here after paper PMC4898654 (Biochemistry, 2016).

One assay has as its system Rev1-CT domain. The following applies: human RIR motifs; cited from earlier work.
The target in assay [1] is Polκ RIR (Homo sapiens) (UniProt Q9UBT6). Description: SPR. The following applies: cited from earlier work.
Assay [2] shares this target. Description: intrinsic tryptophan fluorescence. The following applies: cited from earlier work.
The target in assay [3] is T1, Human Rev1 C-terminal domain (Rev1-CT; residues 1158-1251) (human, UniProt Q9UBZ9 1158-1251).
T1 sequence (looked up): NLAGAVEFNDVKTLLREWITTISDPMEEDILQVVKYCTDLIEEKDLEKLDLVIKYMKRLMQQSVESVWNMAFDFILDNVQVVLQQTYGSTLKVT
Briefly: SPR. Background: Surface plasmon resonance follows binding to a sensor surface in real time, without labels.

Another assay concerns yeast Rev7. As to conditions: unstructured C-terminal part of Pol32, purified proteins; cited from earlier work.

Where no end group is shown, it is not given here.

In the case of CEMSHKKSFFDKKRSER [Polκ-RIR], in the assay on Rev1-CT domain, the “affinity range of Rev1-CT interactions with RIR motifs” value was “µM to mM affinities”. The Kd is a measure of binding affinity in units of concentration. Take Rev1 CTD (from UniProt Q9UBZ9): the results for the Kd in the assay with Polκ RIR (Homo sapiens) [1] and with Polκ RIR (Homo sapiens) [2] were 7600 nM and 300 nM, respectively. EMSHKKSFFDKKRSER [Polκ-RIR peptide (residues 560-575) modified with an N-terminal cysteine residue] displayed a Kd in assay [3] of 1700 ± 600 nM.

B1: Pol32: subunit of yeast Polζ (homologue of human PolD3) (protein, UniProt P47110 1-350, looked up)
DNA polymerase delta subunit 3: MDQKASYFINEKLFTEVKPVLFTDLIHHLKIGPSMAKKLMFDYYKQTTNAKYNCVVICCYKDQTIKIIHDLSNIPQQDSIIDCFIYAFNPMDSFIPYYDIIDQKDCLTIKNSYELKVSESSKIIERTKTLEEKSKPLVRPTARSKTTPEETTGRKSKSKDMGLRSTALLAKMKKDRDDKETSRQNELRKRKEENLQKINKQNPEREAQMKELNNLFVEDDLDTEEVNGGSKPNSPKETDSNDKDKNNDDLEDLLETTAEDSLMDVPKIQQTKPSETEHSKEPKSEEEPSSFIDEDGYIVTKRPATSTPPRKPSPVVKRALSSSKKQETPSSNKRLKKQGTLESFFKRKAK
For B1, the “Rev7 - Pol32 interaction” value in the assay on yeast Rev7 was “direct interaction”.
